Data on 46 substances can be found in patent US11332512B2, “Peptides and combination of peptides for use in immunotherapy against various tumors” (Immatics Biotechnologies GmbH, priority 2015, dated 2022).

The target in this experiment is HLA-A*02:01 (Homo sapiens, UniProt P04439, D140Y/D185E/D98H/E176V/E277Q/G131W/G231S/I119V/I121R/I166T/I218V/L300P/L318F/N151K/N90K/P208A/P217A/Q86G/Q94H/R138H/R169H/T345S). As to the kind of experiment: MHC binding assay: UV-ligand exchange with beta2m ELISA (peptide exchange yield). As to conditions: binding to HLA-A*02:01, β2m ELISA. The text has this: Candidate peptides for T cell based therapies according to the present invention were further tested for their MHC binding capacity (affinity). The individual peptide-MHC complexes were produced by UV-ligand exchange, where a UV-sensitive peptide is cleaved upon UV-irradiation, and exchanged with the peptide of interest as analyzed. Only peptide candidates that can effectively bind and stabilize the peptide-receptive MHC molecules prevent dissociation of the MHC complexes. To determine the yield of the exchange reaction, an ELISA was performed based on the detection of the light chain (β2m) of stabilized MHC complexes. The assay was performed as generally described in Rodenko et al. (Rodenko et al., 2006).
96 well MAXISorp plates (NUNC) were coated over night with 2 ug/ml streptavidin in PBS at room temperature, washed 4× and blocked for 1 h at 37° C. in 2% BSA containing blocking buffer. Refolded HLA-A*02:01/MLA-001 monomers served as standards, covering the range of 15-500 ng/ml. Peptide-MHC monomers of the UV-exchange reaction were diluted 100 fold in blocking buffer. Samples were incubated for 1 h at 37° C., washed four times, incubated with 2 ug/ml HRP conjugated anti-β2m for 1 h at 37° C., washed again and detected with TMB solution that is stopped with […]. Absorption was measured at 450 nm. Candidate peptides that show a high exchange yield (preferably higher than 50%, most preferred higher than 75%) are generally preferred for a generation and production of antibodies or fragments thereof, and/or T cell receptors or fragments thereof, as they show sufficient avidity to the MHC molecules and prevent dissociation of the MHC complexes.
For orientation: In an ELISA, binding on a coated surface is turned into a signal by an enzyme label.

Regarding “21 (YLMDDFSSL; listed as Homo sapiens) [compound 21]”, the “Peptide exchange (MHC class I binding score, peptide exchange yield)” value (“Peptide exchange” below) was “+++ (= ≥50% = +++)”.

In the case of “62 (SLVENIHVL; listed as Homo sapiens) [compound 62]”, the “Peptide exchange” value is “+++ (= ≥50% = +++)”.

Turning to “179 (TLGEIIKGV; listed as Homo sapiens) [compound 179]”, the “Peptide exchange” value was “+++ (= ≥50% = +++)”.

For “87 (KLLSLLEEA; listed as Homo sapiens) [compound 87]”, the “Peptide exchange” value is listed as “+++ (= ≥50% = +++)”.

As to “60 (YLFSQGLQGL; listed as Homo sapiens) [compound 60]”, the “Peptide exchange” value is reported as “+++ (= ≥50% = +++)”.

For “126 (QLREAFEQL; listed as Homo sapiens) [compound 126]”, the “Peptide exchange” value is listed as “+++ (= ≥50% = +++)”.

For the substance “108 (FIANLPPELKA; listed as Homo sapiens) [compound 108]”, the “Peptide exchange” value is listed as “+++ (= ≥50% = +++)”.

Turning to “94 (YLDEVAFML; listed as Homo sapiens) [compound 94]”, the “Peptide exchange” value is “+++ (= ≥50% = +++)”.

Consider “168 (VIFEGEPMYL; listed as Homo sapiens) [compound 168]”, for which the “Peptide exchange” value is “+++ (= ≥50% = +++)”.

Turning to “164 (MLIIRVPSV; listed as Homo sapiens) [compound 164]”, the “Peptide exchange” value is on record as “+++ (= ≥50% = +++)”.

With “204 (SEWGSPHAAVP; listed as Homo sapiens) [compound 204]”, the “Peptide exchange” value is reported as “+++ (= ≥50% = +++)”.

For the substance “239 (VIIKGLEEITV; listed as Homo sapiens) [compound 239]”, the “Peptide exchange” value is listed as “+++ (= ≥50% = +++)”.

For “173 (RLIDIYKNV; listed as Homo sapiens) [compound 173]”, the “Peptide exchange” value is on record as “+++ (= ≥50% = +++)”.

For “80 (VLTGQVHEL; listed as Homo sapiens) [compound 80]”, the “Peptide exchange” value was “+++ (= ≥50% = +++)”.

Turning to “132 (ALLNNVIEV; listed as Homo sapiens) [compound 132]”, the “Peptide exchange” value is “+++ (= ≥50% = +++)”.

As to “224 (LLFDWSGTGRADA; listed as Homo sapiens) [compound 224]”, the “Peptide exchange” value is reported as “+++ (= ≥50% = +++)”.

As to “274 (TLYNPERTITV; listed as Homo sapiens) [compound 274]”, the “Peptide exchange” value is “+++ (= ≥50% = +++)”.

In the case of “256 (FLNDIFERI; listed as Homo sapiens) [compound 256]”, the “Peptide exchange” value is reported as “+++ (= ≥50% = +++)”.

On to “190 (SLSTELFKV; listed as Homo sapiens) [compound 190]”, for which the “Peptide exchange” value is given as “+++ (= ≥50% = +++)”.

Take “200 (IMPTFDLTKV; listed as Homo sapiens) [compound 200]”: the “Peptide exchange” value was “+++ (= ≥50% = +++)”.

Turning to “153 (KLVELEHTL; listed as Homo sapiens) [compound 153]”, the “Peptide exchange” value is listed as “+++ (= ≥50% = +++)”.

Turning to “47 (GLNGFNVLL; listed as Homo sapiens) [compound 47]”, the “Peptide exchange” value was “+++ (= ≥50% = +++)”.

Take “167 (LVVDEGSLVSV; listed as Homo sapiens) [compound 167]”: the “Peptide exchange” value is “+++ (= ≥50% = +++)”.

Regarding “136 (LLWDAPAKC; listed as Homo sapiens) [compound 136]”, the “Peptide exchange” value is reported as “+++ (= ≥50% = +++)”.

Consider “30 (IITEVITRL; listed as Homo sapiens) [compound 30]”, for which the “Peptide exchange” value is reported as “+++ (= ≥50% = +++)”.

Consider “25 (LLWGHPRVALA; listed as Homo sapiens) [compound 25]”, for which the “Peptide exchange” value was “+++ (= ≥50% = +++)”.

“270 (TLLTFFHEL; listed as Homo sapiens) [compound 270]”: the “Peptide exchange” value is given as “+++ (= ≥50% = +++)”.

Take “286 (FLTEMVHFI; listed as Homo sapiens) [compound 286]”: the “Peptide exchange” value is on record as “+++ (= ≥50% = +++)”.

Consider “95 (KLIDEDEPLFL; listed as Homo sapiens) [compound 95]”, for which the “Peptide exchange” value is recorded as “+++ (= ≥50% = +++)”.

For the substance “220 (ALSELERVL; listed as Homo sapiens) [compound 220]”, the “Peptide exchange” value was “+++ (= ≥50% = +++)”.

“44 (AVFNLVHVV; listed as Homo sapiens) [compound 44]”: the “Peptide exchange” value is recorded as “+++ (= ≥50% = +++)”.

With “160 (TLQEWLTEV; listed as Homo sapiens) [compound 160]”, the “Peptide exchange” value is given as “+++ (= ≥50% = +++)”.

Consider “218 (SLTGANITV; listed as Homo sapiens) [compound 218]”, for which the “Peptide exchange” value is “+++ (= ≥50% = +++)”.

Turning to “86 (SLFSNIESV; listed as Homo sapiens) [compound 86]”, the “Peptide exchange” value is “+++ (= ≥50% = +++)”.

On to “5 (GLVDIMVHL; listed as Homo sapiens) [compound 5]”, for which the “Peptide exchange” value was “+++ (= ≥50% = +++)”.

For “191 (AAIEIFEKV; listed as Homo sapiens) [compound 191]”, the “Peptide exchange” value is given as “+++ (= ≥50% = +++)”.

As for “276 (RMPTVLQCV; listed as Homo sapiens) [compound 276]”, the “Peptide exchange” value is given as “+++ (= ≥50% = +++)”.

For “226 (SLAGNLQEL; listed as Homo sapiens) [compound 226]”, the “Peptide exchange” value is reported as “+++ (= ≥50% = +++)”.

Regarding “54 (YLVPGLVAA; listed as Homo sapiens) [compound 54]”, the “Peptide exchange” value was “+++ (= ≥50% = +++)”.

For “144 (FLISQTPLL; listed as Homo sapiens) [compound 144]”, the “Peptide exchange” value is on record as “+++ (= ≥50% = +++)”.

Turning to “82 (ILAEEPIYIRV; listed as Homo sapiens) [compound 82]”, the “Peptide exchange” value is listed as “+++ (= ≥50% = +++)”.

In the case of “244 (NVAEIVIHI; listed as Homo sapiens) [compound 244]”, the “Peptide exchange” value is recorded as “+++ (= ≥50% = +++)”.

For “68 (QLMNLIRSV; listed as Homo sapiens) [compound 68]”, the “Peptide exchange” value is given as “+++ (= ≥50% = +++)”.

Regarding “225 (FLPQPVPLSV; listed as Homo sapiens) [compound 225]”, the “Peptide exchange” value was “+++ (= ≥50% = +++)”.

“211 (LLTTVLINA; listed as Homo sapiens) [compound 211]”: the “Peptide exchange” value is reported as “+++ (= ≥50% = +++)”.

Consider “183 (ALSYILPYL; listed as Homo sapiens) [compound 183]”, for which the “Peptide exchange” value was “+++ (= ≥50% = +++)”.
